Laboratory results taken from patent publication US20220298218A1 (ANTAG THERAPEUTICS, published 2022).
*1 amine or outer side, *2 acyl side, *3 side chain or, on linkers, in order; H or OH if unused. Where no end group is shown, it is not given here. Side-chain parts run from the residue outwards. The star is where a group is joined. C18 diacid = O=C(O)CCCCCCCCCCCCCCCCC(=O)*; C16 diacid = O=C(O)CCCCCCCCCCCCCCC(=O)*; γGlu = O=C(O)[C@H](CCC(=O)[*:2])N[*:1]; Stearoyl = CCCCCCCCCCCCCCCCCC(=O)*; AEEA = NCCOCCOCC(=O)O

T1: human GIP receptor (human, UniProt P48546 22-466)
T1 sequence (looked up): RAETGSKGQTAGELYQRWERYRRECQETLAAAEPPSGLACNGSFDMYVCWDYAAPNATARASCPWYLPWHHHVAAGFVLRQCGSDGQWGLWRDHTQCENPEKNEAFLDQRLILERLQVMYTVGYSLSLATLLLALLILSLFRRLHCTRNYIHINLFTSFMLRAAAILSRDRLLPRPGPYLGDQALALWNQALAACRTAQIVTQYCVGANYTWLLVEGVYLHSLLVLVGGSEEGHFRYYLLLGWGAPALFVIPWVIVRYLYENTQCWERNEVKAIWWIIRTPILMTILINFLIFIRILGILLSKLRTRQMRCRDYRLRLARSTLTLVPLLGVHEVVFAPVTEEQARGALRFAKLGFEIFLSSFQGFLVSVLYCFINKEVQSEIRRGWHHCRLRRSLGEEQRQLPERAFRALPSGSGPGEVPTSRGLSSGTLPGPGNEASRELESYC

B1: AT545 (peptide)
peptide: EGTFISDYSIAMDKIK([AEEA-AEEA-γGlu-C18 diacid])QQDFVNWLLAQKGKKNDW-NH2
modifications: N-terminus assumed
SMILES: CC[C@H](C)[C@H](NC(=O)[C@H](CO)NC(=O)[C@H](Cc1ccc(O)cc1)NC(=O)[C@H](CC(=O)O)NC(=O)[C@H](CO)NC(=O)[C@@H](NC(=O)[C@H](Cc1ccccc1)NC(=O)[C@@H](NC(=O)CNC(=O)[C@@H](N)CCC(=O)O)[C@@H](C)O)[C@@H](C)CC)C(=O)N[C@@H](C)C(=O)N[C@@H](CCSC)C(=O)N[C@@H](CC(=O)O)C(=O)N[C@@H](CCCCN)C(=O)N[C@H](C(=O)N[C@@H](CCCCNC(=O)COCCOCCNC(=O)COCCOCCNC(=O)CC[C@H](NC(=O)CCCCCCCCCCCCCCCCC(=O)O)C(=O)O)C(=O)N[C@@H](CCC(N)=O)C(=O)N[C@@H](CCC(N)=O)C(=O)N[C@@H](CC(=O)O)C(=O)N[C@@H](Cc1ccccc1)C(=O)N[C@H](C(=O)N[C@@H](CC(N)=O)C(=O)N[C@@H](Cc1c[nH]c2ccccc12)C(=O)N[C@@H](CC(C)C)C(=O)N[C@@H](CC(C)C)C(=O)N[C@@H](C)C(=O)N[C@@H](CCC(N)=O)C(=O)N[C@@H](CCCCN)C(=O)NCC(=O)N[C@@H](CCCCN)C(=O)N[C@@H](CCCCN)C(=O)N[C@@H](CC(N)=O)C(=O)N[C@@H](CC(=O)O)C(=O)N[C@@H](Cc1c[nH]c2ccccc12)C(N)=O)C(C)C)[C@@H](C)CC
B2: AT631 (peptide)
peptide: EGTFISDYSIAMDKIK(C16 diacid)QQDFVNWLLAQKPSSGAPPPS-OH
modifications: N-terminus assumed
SMILES: CC[C@H](C)[C@H](NC(=O)[C@H](CO)NC(=O)[C@H](Cc1ccc(O)cc1)NC(=O)[C@H](CC(=O)O)NC(=O)[C@H](CO)NC(=O)[C@@H](NC(=O)[C@H](Cc1ccccc1)NC(=O)[C@@H](NC(=O)CNC(=O)[C@@H](N)CCC(=O)O)[C@@H](C)O)[C@@H](C)CC)C(=O)N[C@@H](C)C(=O)N[C@@H](CCSC)C(=O)N[C@@H](CC(=O)O)C(=O)N[C@@H](CCCCN)C(=O)N[C@H](C(=O)N[C@@H](CCCCNC(=O)CCCCCCCCCCCCCCC(=O)O)C(=O)N[C@@H](CCC(N)=O)C(=O)N[C@@H](CCC(N)=O)C(=O)N[C@@H](CC(=O)O)C(=O)N[C@@H](Cc1ccccc1)C(=O)N[C@H](C(=O)N[C@@H](CC(N)=O)C(=O)N[C@@H](Cc1c[nH]c2ccccc12)C(=O)N[C@@H](CC(C)C)C(=O)N[C@@H](CC(C)C)C(=O)N[C@@H](C)C(=O)N[C@@H](CCC(N)=O)C(=O)N[C@@H](CCCCN)C(=O)N1CCC[C@H]1C(=O)N[C@@H](CO)C(=O)N[C@@H](CO)C(=O)NCC(=O)N[C@@H](C)C(=O)N1CCC[C@H]1C(=O)N1CCC[C@H]1C(=O)N1CCC[C@H]1C(=O)N[C@@H](CO)C(=O)O)C(C)C)[C@@H](C)CC
B3: AT547 (peptide)
peptide: EGTFISDYSIAMDKIKQQDFVNWLLAQKGKKNDW
HELM: PEPTIDE1{E.G.T.F.I.S.D.Y.S.I.A.M.D.K.I.K.Q.Q.D.F.V.N.W.L.L.A.Q.K.G.K.K.N.D.W}|PEPTIDE2{[CCCCCCCCCCCCCCCCCC(=O)[*:2]].[gGlu].[gGlu]}$PEPTIDE1,PEPTIDE2,16:R3-3:R2$$$V2.0; N-terminus assumed
SMILES: CCCCCCCCCCCCCCCCCC(=O)N[C@@H](CCC(=O)N[C@@H](CCC(=O)NCCCC[C@H](NC(=O)[C@@H](NC(=O)[C@H](CCCCN)NC(=O)[C@H](CC(=O)O)NC(=O)[C@H](CCSC)NC(=O)[C@H](C)NC(=O)[C@@H](NC(=O)[C@H](CO)NC(=O)[C@H](Cc1ccc(O)cc1)NC(=O)[C@H](CC(=O)O)NC(=O)[C@H](CO)NC(=O)[C@@H](NC(=O)[C@H](Cc1ccccc1)NC(=O)[C@@H](NC(=O)CNC(=O)[C@@H](N)CCC(=O)O)[C@@H](C)O)[C@@H](C)CC)[C@@H](C)CC)[C@@H](C)CC)C(=O)N[C@@H](CCC(N)=O)C(=O)N[C@@H](CCC(N)=O)C(=O)N[C@@H](CC(=O)O)C(=O)N[C@@H](Cc1ccccc1)C(=O)N[C@H](C(=O)N[C@@H](CC(N)=O)C(=O)N[C@@H](Cc1c[nH]c2ccccc12)C(=O)N[C@@H](CC(C)C)C(=O)N[C@@H](CC(C)C)C(=O)N[C@@H](C)C(=O)N[C@@H](CCC(N)=O)C(=O)N[C@@H](CCCCN)C(=O)NCC(=O)N[C@@H](CCCCN)C(=O)N[C@@H](CCCCN)C(=O)N[C@@H](CC(N)=O)C(=O)N[C@@H](CC(=O)O)C(=O)N[C@@H](Cc1c[nH]c2ccccc12)C(=O)O)C(C)C)C(=O)O)C(=O)O
B4: AT546 (peptide)
peptide: EGTFISDYSIAMDKIK([AEEA-AEEA-γGlu-Stearoyl])QQDFVNWLLAQKGKKNDW-OH
modifications: N-terminus assumed
SMILES: CCCCCCCCCCCCCCCCCC(=O)N[C@@H](CCC(=O)NCCOCCOCC(=O)NCCOCCOCC(=O)NCCCC[C@H](NC(=O)[C@@H](NC(=O)[C@H](CCCCN)NC(=O)[C@H](CC(=O)O)NC(=O)[C@H](CCSC)NC(=O)[C@H](C)NC(=O)[C@@H](NC(=O)[C@H](CO)NC(=O)[C@H](Cc1ccc(O)cc1)NC(=O)[C@H](CC(=O)O)NC(=O)[C@H](CO)NC(=O)[C@@H](NC(=O)[C@H](Cc1ccccc1)NC(=O)[C@@H](NC(=O)CNC(=O)[C@@H](N)CCC(=O)O)[C@@H](C)O)[C@@H](C)CC)[C@@H](C)CC)[C@@H](C)CC)C(=O)N[C@@H](CCC(N)=O)C(=O)N[C@@H](CCC(N)=O)C(=O)N[C@@H](CC(=O)O)C(=O)N[C@@H](Cc1ccccc1)C(=O)N[C@H](C(=O)N[C@@H](CC(N)=O)C(=O)N[C@@H](Cc1c[nH]c2ccccc12)C(=O)N[C@@H](CC(C)C)C(=O)N[C@@H](CC(C)C)C(=O)N[C@@H](C)C(=O)N[C@@H](CCC(N)=O)C(=O)N[C@@H](CCCCN)C(=O)NCC(=O)N[C@@H](CCCCN)C(=O)N[C@@H](CCCCN)C(=O)N[C@@H](CC(N)=O)C(=O)N[C@@H](CC(=O)O)C(=O)N[C@@H](Cc1c[nH]c2ccccc12)C(=O)O)C(C)C)C(=O)O
B5: AT549 (peptide)
peptide: EGTFISDYSIAMDKIHQK([AEEA-AEEA-γGlu-C18 diacid])DFVNWLLAQKGKKNDW-NH2
modifications: N-terminus assumed
SMILES: CC[C@H](C)[C@H](NC(=O)[C@H](CO)NC(=O)[C@H](Cc1ccc(O)cc1)NC(=O)[C@H](CC(=O)O)NC(=O)[C@H](CO)NC(=O)[C@@H](NC(=O)[C@H](Cc1ccccc1)NC(=O)[C@@H](NC(=O)CNC(=O)[C@@H](N)CCC(=O)O)[C@@H](C)O)[C@@H](C)CC)C(=O)N[C@@H](C)C(=O)N[C@@H](CCSC)C(=O)N[C@@H](CC(=O)O)C(=O)N[C@@H](CCCCN)C(=O)N[C@H](C(=O)N[C@@H](Cc1c[nH]cn1)C(=O)N[C@@H](CCC(N)=O)C(=O)N[C@@H](CCCCNC(=O)COCCOCCNC(=O)COCCOCCNC(=O)CC[C@H](NC(=O)CCCCCCCCCCCCCCCCC(=O)O)C(=O)O)C(=O)N[C@@H](CC(=O)O)C(=O)N[C@@H](Cc1ccccc1)C(=O)N[C@H](C(=O)N[C@@H](CC(N)=O)C(=O)N[C@@H](Cc1c[nH]c2ccccc12)C(=O)N[C@@H](CC(C)C)C(=O)N[C@@H](CC(C)C)C(=O)N[C@@H](C)C(=O)N[C@@H](CCC(N)=O)C(=O)N[C@@H](CCCCN)C(=O)NCC(=O)N[C@@H](CCCCN)C(=O)N[C@@H](CCCCN)C(=O)N[C@@H](CC(N)=O)C(=O)N[C@@H](CC(=O)O)C(=O)N[C@@H](Cc1c[nH]c2ccccc12)C(N)=O)C(C)C)[C@@H](C)CC
B6: AT548 (peptide)
peptide: EGTFISDYSIAMDKIHQK([AEEA-AEEA-γGlu-C18 diacid])DFVNWLLAQKGKKNDW-OH
modifications: N-terminus assumed
SMILES: CC[C@H](C)[C@H](NC(=O)[C@H](CO)NC(=O)[C@H](Cc1ccc(O)cc1)NC(=O)[C@H](CC(=O)O)NC(=O)[C@H](CO)NC(=O)[C@@H](NC(=O)[C@H](Cc1ccccc1)NC(=O)[C@@H](NC(=O)CNC(=O)[C@@H](N)CCC(=O)O)[C@@H](C)O)[C@@H](C)CC)C(=O)N[C@@H](C)C(=O)N[C@@H](CCSC)C(=O)N[C@@H](CC(=O)O)C(=O)N[C@@H](CCCCN)C(=O)N[C@H](C(=O)N[C@@H](Cc1c[nH]cn1)C(=O)N[C@@H](CCC(N)=O)C(=O)N[C@@H](CCCCNC(=O)COCCOCCNC(=O)COCCOCCNC(=O)CC[C@H](NC(=O)CCCCCCCCCCCCCCCCC(=O)O)C(=O)O)C(=O)N[C@@H](CC(=O)O)C(=O)N[C@@H](Cc1ccccc1)C(=O)N[C@H](C(=O)N[C@@H](CC(N)=O)C(=O)N[C@@H](Cc1c[nH]c2ccccc12)C(=O)N[C@@H](CC(C)C)C(=O)N[C@@H](CC(C)C)C(=O)N[C@@H](C)C(=O)N[C@@H](CCC(N)=O)C(=O)N[C@@H](CCCCN)C(=O)NCC(=O)N[C@@H](CCCCN)C(=O)N[C@@H](CCCCN)C(=O)N[C@@H](CC(N)=O)C(=O)N[C@@H](CC(=O)O)C(=O)N[C@@H](Cc1c[nH]c2ccccc12)C(=O)O)C(C)C)[C@@H](C)CC

What follows are binders tested against T1, human GIP receptor (assay: cell-based or functional assay).

B1 and TFISDYK([γGlu-γGlu-C18])IAMDKIHQQDFVNWLLAQKGKKNDW-OH [AT561] are the same in “cAMP agonism % Emax” value: 0% for the first, 0% for the second.

B2 and B3 are the same in “cAMP agonism % Emax” value: 0% for the first, 0% for the second.

B4 and B5 are the same in “cAMP agonism % Emax” value: 0% for the first, 0% for the second.

In the case of B6, the “cAMP agonism % Emax” value is reported as 0%.

Going from B1 to TFISDYK([γGlu-γGlu-C18])IAMDKIHQQDFVNWLLAQKGKKNDW-OH [AT561], the “cAMP antagonism” value falls from 17.8 nM to 11.2 nM (1.6-fold).

Compared with B3, B4 is 1.6-fold higher in “cAMP antagonism” value: 7.94 nM for the first, 12.6 nM for the second.

Going from B5 to TFISDYK([AEEA-AEEA-γGlu-C18])IAMDKIHQQDFVNWLLAQKGKKNDW-OH [AT560], the “cAMP antagonism” value falls from 200 nM to 23.3 nM (8.6-fold).

With B6 the “cAMP antagonism” value was 126 nM.

Going from B1 to TFISDYK([γGlu-γGlu-C18])IAMDKIHQQDFVNWLLAQKGKKNDW-OH [AT561], the “cAMP antagonism % inhib” value rises from 77% to 97%.

Compared with B3, B4 is lower in “cAMP antagonism % inhib” value: 100% for the first, 95% for the second.

First: B5
Second: TFISDYK([AEEA-AEEA-γGlu-C18])IAMDKIHQQDFVNWLLAQKGKKNDW-OH [AT560]
The “cAMP antagonism % inhib” value of the first is lower: 80% for the first, 100% for the second.

For B6, the “cAMP antagonism % inhib” value was 86%.

First: B1
Second: TFISDYK([γGlu-γGlu-C18])IAMDKIHQQDFVNWLLAQKGKKNDW-OH [AT561]
The “cAMP antagonism pIC50” value of the first is lower: 7.8 for the first, 8 for the second.

Compared with B3, B4 is lower in “cAMP antagonism pIC50” value: 8.1 for the first, 7.9 for the second.

First: B5
Second: TFISDYK([AEEA-AEEA-γGlu-C18])IAMDKIHQQDFVNWLLAQKGKKNDW-OH [AT560]
The “cAMP antagonism pIC50” value of the first is lower: 6.7 for the first, 7.6 for the second.

With B6 the “cAMP antagonism pIC50” value was 6.9.
